± gives the uncertainty stated by the source.

The record followed here is the supplement of paper PMC12042874.

The series in a line: amyloid nucleation score (Sup35N fusion, yeast selection) (log enrichment); library NNK2; higher = more nucleation; inactive = no reads after selection. The gist of the method:
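Peptides of 20 random codons fused to Sup35N were expressed in psi-negative yeast, induced 24 hours with 100 μM copper sulfate, then grown 7 days at 30°C on medium lacking adenine and uracil. Input and output plasmid inserts were Illumina-sequenced. Nucleation score is the DiMSum log enrichment of output over input reads, centred on the mode score of non-aggregating sequences, excluding sequences with under 100 input reads. Random libraries had three technical output replicates.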
For YVRYFSIQTGHV, the amyloid nucleation score result was “inactive”.

The substance SLEKMWCRLFKGSQT returned an amyloid nucleation score of 1.11 ± 0.12.

The substance DSSGFCMMVYYIQ had an amyloid nucleation score of -0.365 ± 0.76. For FLMANSFFCNCFYTVYFTHC the value was 4.52 ± 0.047; for TDLYCFSSI, -1.29 ± 1; for AHHPYTNQGSTVRSRAGQWG, 0.519 ± 0.54. As for RSCFPMIIALVRFDVFGDCY, the amyloid nucleation score was -0.339 ± 0.31. Consider LALMS, for which the amyloid nucleation score was -0.324 ± 0.61. As for LCNNKAYNDKLSPEPLAISR, the figure is -0.578 ± 0.39; as for ACSRANLAKKLRGMWRYSAF, -0.199 ± 1.1; as for AAVSSCLLFYSC, 3.5 ± 0.082. For NACYIDFGRTAVSTVLAILY the value was 3.41 ± 0.09. As for VMGYGKRLMSHLGMKSRTRL, the figure is 0.468 ± 0.29; as for VYTFK, 0.667 ± 0.66. Substance DMMRFYGAPDGQGNTHQNRT came in with an amyloid nucleation score of 1.63 ± 0.12. As for RYRLISTTFGVAHSFEPPRL, the figure is 4.26 ± 0.059; as for SMAFREILLLMGSMLSCIRS, -0.956 ± 1. In turn, LWYGWCKRLYFVRCHYRVSM had an amyloid nucleation score of -0.543 ± 0.55. As for ANYTCTLTSL, the figure is -0.056 ± 0.21. As for GLNVHVVRLGIQLFFKWNDI, the figure is 1.74 ± 0.18; as for MLSENADTRCLRMFVSDCQR, 1.26 ± 0.16; as for YTRWWLWWGFNNCWRYWSEK, -0.96 ± 0.55. For GECRCYHQTCGFHCNLGFGY the value was 4.7 ± 0.08. FEPWWCNSIMRLVVIEGEW: the amyloid nucleation score was found to be 0.315 ± 0.46. CQRQRLNFY came in with an amyloid nucleation score of -0.626 ± 1.1. With YKSVERTASRMIQIEVFWEY, the amyloid nucleation score result is “inactive”. For SLYVGFNRFFIRPVCCEVRG, the amyloid nucleation score was -0.608 ± 1.1. For ISSDLWVHSFNTILSENGVC the value was -0.674 ± 0.63; for WSGKRAFNYINGGLGMAKEL, 4.11 ± 0.062.

Substance DLARPDFKLIYSYGSNSPGS registered an amyloid nucleation score of -1.38 ± 0.64. For LSESRRQVASASDLMKRRIP the value was 1.24 ± 0.66; for VGFISTMWHMYSELLGQINV, -0.499 ± 0.76. Take CSYSFDLTANICPISLNVVC: the amyloid nucleation score was 5.001 ± 0.043. For RYGFSVSITMIFYRGGFCRW the value was “inactive”; for WLLVYYISARVQQSADNKRW, -1.02 ± 1. For KCHCRAMS the value was “inactive”; for TTDSGAVYSGLPE, 0.542 ± 0.19. Substance SDFIPGKMCLNCLWWFVPTR showed an amyloid nucleation score of -0.496 ± 0.36. For CVVDLDPCNGDAGLSSYTIS the value was 0.594 ± 0.13.

Take DYVSRKCFRDKWSERSSCRG: the amyloid nucleation score amounted to 0.085 ± 0.37. As for PCNLKNNCVSEWIGLFVQPQ, the figure is 2.23 ± 0.18; as for EDIGSGGKTRFLDRRWVFCN, “inactive”. In turn, PTLVLKKAVEPTQENGSLTV came in with an amyloid nucleation score of 5.767 ± 0.051. For LTPNCGKVGGRMRGRILSGV the value was 0.787 ± 0.3. For RADTRDSGVVEACKGWSHEE the value was 0.451 ± 0.34; for SFHLS, -0.019 ± 0.6. As for YALWFVIWEVGRGFLVVISF, the entry is “inactive”. Regarding AFSNSM, the amyloid nucleation score was determined as 0.988 ± 0.52. As for TAVVLTTGLHVIQVLWHN, the figure is 2.94 ± 0.12; as for IVHQGLLIRPIDGVGRLTLS, 4.05 ± 0.1. For GVRSNLSYNIFVTCAMRASG the value was “inactive”; for CGWGYLTCPSRTVVWARAGV, 1.35 ± 0.25. As for VESIKGVSCLYMFSYVMLLQ, the figure is -0.021 ± 0.37. IRVGICAVDGPACKRLYSCM showed an amyloid nucleation score of -0.176 ± 0.35. For SCLTDQDERPGLWELSCRYM, the amyloid nucleation score was determined as 1.1 ± 0.34. Consider VMPIFNYWV, for which the amyloid nucleation score was 0.121 ± 0.3. For EDKLFINLSRELVFGKIRPT the value was 6.138 ± 0.053; for KCRLSIF, “inactive”. For VFFGVQNKR the value was 3.04 ± 0.095.

PLLTMWDLDSGVSGFCQVRS yielded an amyloid nucleation score of -0.477 ± 0.35. CHSNKSCRSHIEEI gave an amyloid nucleation score of -0.377 ± 0.5. Take FHRCSYLVT: the amyloid nucleation score turned out to be 2.95 ± 0.09. For the substance AMLDP, the amyloid nucleation score was -0.191 ± 0.41. Turning to EGMSI, the amyloid nucleation score result was “inactive”.

The substance FYSLILMMEDGSEYVKVEFR showed an amyloid nucleation score of -1.38 ± 0.75. For VRLLSFEINSWWLCACCRSV, the amyloid nucleation score is 7 ± 0.076. LRRKEVKWLCL: the amyloid nucleation score was 0.754 ± 0.47. Take ASDVKGSANDVVGFWVLPDQ: the amyloid nucleation score worked out at 5.907 ± 0.049.

For AFWKVRLYRRPG, the amyloid nucleation score turned out to be 1.76 ± 0.24. RTVLATYMTPRSTPKSDYPR: the amyloid nucleation score is -0.734 ± 0.48. In the case of AAAHLH, the amyloid nucleation score was -0.75 ± 0.76. As for YHSFLWKINSCAVMMEDSTG, the figure is 0.811 ± 0.67; as for QSPSIRTCTYYGTYRRLKKG, “inactive”; as for YTFCKHDVYAISLRFVLAPY, 7.304 ± 0.035. As for FYGVNVRIRCKH, the figure is 0.486 ± 0.66; as for LFERFWFIL, 0.187 ± 0.23; as for LFSLPPCFN, 1.5 ± 0.11. SGRLL came in with an amyloid nucleation score of 1 ± 0.13. As for PCCFYLRICLCFSNTVEPIG, the figure is 4.07 ± 0.046. As for PIRCRMKFY, the figure is -0.599 ± 0.38; as for QLCAMKMDSRIFCVSCFTML, 7.049 ± 0.056. As for YCRMYSRNVDGVWHTISKLD, the figure is 0.108 ± 0.42; as for TSVYFHFGFPPWVGVPRRLT, 3.17 ± 0.077. For the substance RAANYCGLKQAWSGFKRCVA, the amyloid nucleation score came out at 0.496 ± 0.36.

For the substance VGIYMIWLISSS, the amyloid nucleation score result is “inactive”. On to TLVSWYSTTEPAC, for which the amyloid nucleation score was -1.13 ± 0.78. As for YKNVAFCFVRMFFEGHSINC, the figure is -1.45 ± 0.76. As for GINRKDKMSKCTDLVVFCLG, the figure is -0.076 ± 0.33; as for YKSSGLLSYTSIGNVDIYFV, 6.26 ± 0.079. As for KFGSWDHSACYSRWYSKSFV, the figure is -0.012 ± 1.1. The substance SYLLSKMQHFLMVTK had an amyloid nucleation score of -1.32 ± 0.53. Take CKCPYFLCIRFWDVDSAMLS: the amyloid nucleation score turned out to be 2.21 ± 0.076. As for SKKELLNAVPVGMG, the figure is 0.113 ± 0.63. As for FCLIHVVM, the figure is 1.32 ± 0.27; as for YRFAGYVTPRFGYKSHNISL, -1.22 ± 1.1.

Regarding YFMVHIMGTVKIGRW, the amyloid nucleation score is 3.13 ± 0.098. With QLGLLFFGTVLM, the amyloid nucleation score came to 1.87 ± 0.14. As for NDWFCVVY, the figure is -1.48 ± 0.42. As for ILTIALVRFSLSRWRLPWPY, the figure is 1.36 ± 0.29; as for VLWVS, “inactive”; as for QNLCDCCKYQICSVLFMGHA, 4.33 ± 0.082. For RTLYSGWVGHVSKEARNLFK the value was 6.12 ± 0.054; for ERKHTFHAVGHGLQESLVRF, -0.212 ± 0.45; for CSLAFVHRAIFSMSLLHSET, 0.136 ± 0.4.

The substance LTCLFPFWRWCIPAAIEFRR returned an amyloid nucleation score of 0.901 ± 0.28.

LALCREWVTAGSGSFYLDGP: the amyloid nucleation score was -0.06 ± 1.1. In the case of YIFSSVNERLCPALNGWHLD, the amyloid nucleation score entry is “inactive”.

Substance EPHSAI yielded an amyloid nucleation score of -0.1 ± 1.

YDSTVFTITWAKWDVYSLST: the amyloid nucleation score is 2.36 ± 0.096. CDSDSLGVTYVDDDCGYNYC: the amyloid nucleation score is -1.03 ± 0.55.

The substance IDFRISLCVRFFGCFLLDYY registered an amyloid nucleation score of -0.618 ± 0.76.

Turning to FSNSHIVMVENLTDIVSVTT, the amyloid nucleation score result was “inactive”.

TAVWDL gave an amyloid nucleation score of 0.745 ± 0.42.

Take GGVIVQYLPFSNYLRKQGSL: the amyloid nucleation score was -0.304 ± 0.39. As for CTTYPAFLSSGNPNFIMRFL, the figure is -0.148 ± 0.51; as for PYALWGIRESHLFQKCWSGM, 3.33 ± 0.099; as for TNDVTSWKLTHCYLWPKADF, -0.328 ± 0.32. For LTATLAFLVSCFYCSL the value was 6.95 ± 0.028; for ADPSDVFMVVVLGSCRAFTV, 1.63 ± 0.47; for CAIAWRMPLDRPPLKE, -0.627 ± 0.76.

WTMMYCTNACYDRYICNYRA: the amyloid nucleation score is -0.038 ± 1.1. FDALY: the amyloid nucleation score came out at 0.025 ± 0.25. For RSSADAPVY the value was -0.864 ± 1.1; for DRARMYYYSEIHSVVTSIIK, “inactive”.

For RVVGPFFMVFVLTDMGFWVT, the amyloid nucleation score result is “inactive”.

RKIYV displayed an amyloid nucleation score of -0.139 ± 0.55. Substance IIHAFHMSGPLLRAQVS registered an amyloid nucleation score of -0.308 ± 0.38. For SNYVFTNRGLIFRDFRVSDE the value was 5.56 ± 0.086; for LTEVVMAILFSDDSRYIFCG, 1.41 ± 0.16.

In turn, RPKTEDCGLNLSTVLNQVGH had an amyloid nucleation score of 0.111 ± 0.19. In turn, LNHKDICFARNLVRVREGHN had an amyloid nucleation score of 0.809 ± 0.38. As for STWHLFWSP, the figure is 0.654 ± 0.26.

Take KSQRKVIGTLLKVYWPWGCM: the amyloid nucleation score is 0.654 ± 0.25. Take SYIWR: the amyloid nucleation score is -0.551 ± 0.64. For LSFFSLSIQSCMHGSLKIDS, the amyloid nucleation score was -0.294 ± 1.1. As for CGVPNYQLVVEWMMTNRVGN, the figure is -0.888 ± 0.78. Take VNFRVGCLVSYMNVK: the amyloid nucleation score stood at 2.6 ± 0.13. CFTGFRVIMVNICEWCVVVS came in with an amyloid nucleation score of 3.9 ± 0.098. Turning to LCFATYVGTGCVLGLPGYHK, the amyloid nucleation score amounted to 4.59 ± 0.066. Substance FRFSNR gave an amyloid nucleation score of 0.389 ± 0.56.
